Read-outs that look alike come from different tables or passages of the source.
What was measured:
Assay in all cases: SPR
Ab 1-42 [1] = molecular target: Ab 1-42 (UniProt P05067)
Ab 1-42 [2] = molecular target: Ab 1-42 (UniProt P05067); remark: listed apart in the source
PFs (AB 1-42 proto) = PFs (AB 1-42 proto) (UniProt P05067)
monomer = monomer (UniProt P05067)
Sequence of monomer (P05067 672-713): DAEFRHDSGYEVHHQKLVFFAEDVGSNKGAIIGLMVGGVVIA

Sequence of Ab 1-42 (P05067 672-713): as above
Sequence of PFs (AB 1-42 proto) (P05067 672-713): as above

BAPI
koff (Ab 1-42 [1]): 0.000426 s⁻¹
koff (Ab 1-42 [2]): 0.000505 s⁻¹

Aducanumab
koff (PFs (AB 1-42 proto)): 0.000144 s⁻¹
koff (monomer): 0.718 s⁻¹

Source: patent publication US20230107034A1
